Residue numbers refer to the chain shown, from its start. Names may count otherwise.

This is an account of results in PMC10261145, “Ceramide sensing by human SPT-ORMDL complex for establishing sphingolipid homeostasis” (Nature Communications, 2023).

Data set [1] addresses T1, serine palmitoyltransferase (SPT) complex (SPTLC1, SPTLC2, SPTssa) (human, UniProt O15269 1-473; O15270 1-562; Q969W0 1-71).
T1 construct: SPTLC1, human, codon-optimized full-length cDNA; SPTLC2, human, codon-optimized full-length cDNA; SPTssa, human, codon-optimized full-length cDNA; Also purified alone, without ORMDLs; also called WT SPT complex; source: HEK293F, transiently co-transfected, purified (anti-Flag resin, SEC, GDN); copies: + +
T1 sequence (looked up) 1: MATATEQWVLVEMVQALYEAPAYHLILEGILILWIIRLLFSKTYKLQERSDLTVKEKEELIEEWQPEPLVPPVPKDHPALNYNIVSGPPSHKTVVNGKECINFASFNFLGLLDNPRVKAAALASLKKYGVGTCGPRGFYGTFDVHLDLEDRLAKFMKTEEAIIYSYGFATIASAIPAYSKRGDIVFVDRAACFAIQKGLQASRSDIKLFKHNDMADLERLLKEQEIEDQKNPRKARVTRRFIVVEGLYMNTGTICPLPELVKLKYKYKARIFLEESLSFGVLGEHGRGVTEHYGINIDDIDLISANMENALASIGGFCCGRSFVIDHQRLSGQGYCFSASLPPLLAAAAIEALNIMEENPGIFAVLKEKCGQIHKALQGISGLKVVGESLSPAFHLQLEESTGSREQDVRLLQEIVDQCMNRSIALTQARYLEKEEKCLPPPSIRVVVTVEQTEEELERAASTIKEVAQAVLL
T1 sequence (looked up) 2: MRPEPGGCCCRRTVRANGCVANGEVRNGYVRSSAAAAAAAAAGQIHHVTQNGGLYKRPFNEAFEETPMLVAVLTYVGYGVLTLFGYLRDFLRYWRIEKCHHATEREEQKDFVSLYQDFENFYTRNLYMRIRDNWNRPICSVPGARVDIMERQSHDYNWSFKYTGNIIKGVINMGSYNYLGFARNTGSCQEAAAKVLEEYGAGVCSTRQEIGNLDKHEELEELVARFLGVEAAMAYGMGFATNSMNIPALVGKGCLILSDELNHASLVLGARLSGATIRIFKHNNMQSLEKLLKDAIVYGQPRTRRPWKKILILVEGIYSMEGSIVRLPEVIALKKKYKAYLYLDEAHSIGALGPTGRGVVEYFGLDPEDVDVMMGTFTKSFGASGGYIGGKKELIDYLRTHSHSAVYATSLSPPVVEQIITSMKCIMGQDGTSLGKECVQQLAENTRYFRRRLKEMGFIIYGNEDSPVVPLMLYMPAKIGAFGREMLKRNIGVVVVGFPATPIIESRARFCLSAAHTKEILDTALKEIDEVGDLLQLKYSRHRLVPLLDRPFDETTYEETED
T1 sequence (looked up) 3: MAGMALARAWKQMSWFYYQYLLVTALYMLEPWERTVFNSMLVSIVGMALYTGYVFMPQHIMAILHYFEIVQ
In words: cryo-EM structure; single-particle cryo-EM of co-expressed and co-purified SPT-ORMDL3 complexes at ~18 mg/ml in 25 mM HEPES pH 7.5, 150 mM NaCl, 0.01% GDN; apo, or WT preincubated with 1 mM C6-ceramide on ice for 1 hr. Conditions: both partners purified.

Substrate in the data set “purified protein”: N[C@@H](CO)C(=O)O
The data set is described as follows: purified protein. The following applies: 100 μM palmitoyl-CoA, 25 μM PLP, pH 7.5, 37 °C.

Substrate in data set [2]: CCCCCCCCCCCCCCCC(=O)SCCNC(=O)CCNC(=O)[C@H](O)C(C)(C)COP(=O)(O)OP(=O)(O)OC[C@H]1O[C@@H](n2cnc3c(N)ncnc32)[C@H](O)[C@@H]1OP(=O)(O)O
In words: DTNB CoA-release assay; allosteric sigmoidal fit. The data set is classed as biochemical, Homo sapiens. Conditions: 10 mM L-serine, 25 μM PLP, pH 7.5, 37 °C. The text has this:
DTNB CoA-release assay; allosteric sigmoidal fit on SPT-ORMDL3 complex | increased Khalf for palmitoyl-CoA in the ORMDL3-containing complex (Fig. 1e)

The target in the next data set is T2, SPTLC1 (human, UniProt O15269 1-473).
T2 construct: serine palmitoyltransferase subunit SPTLC1, human, codon-optimized full-length cDNA; source: HEK293F, transiently co-transfected with the other subunits, purified as a complex (anti-Flag resin, SEC, GDN)
T2 sequence (looked up): T1 sequence (looked up) 1
The data set is described as follows: cryo-EM structure; single-particle cryo-EM of co-expressed and co-purified SPT-ORMDL3 complexes at ~18 mg/ml in 25 mM HEPES pH 7.5, 150 mM NaCl, 0.01% GDN; apo, or WT preincubated with 1 mM C6-ceramide on ice for 1 hr. The following applies: both partners purified.

The next data set addresses T3, SPTLC2 (human, UniProt O15270 1-562).
T3 construct: serine palmitoyltransferase subunit SPTLC2, human, codon-optimized full-length cDNA; source: HEK293F, transiently co-transfected with the other subunits, purified as a complex (anti-Flag resin, SEC, GDN)
T3 sequence (looked up): T1 sequence (looked up) 2
The data set is described as above. Conditions: both partners purified.

Substrate in data set [3]: CCCCCCCCCCCCCCCC(=O)SCCNC(=O)CCNC(=O)[C@H](O)C(C)(C)COP(=O)(O)OP(=O)(O)OC[C@H]1O[C@@H](n2cnc3c(N)ncnc32)[C@H](O)[C@@H]1OP(=O)(O)O
The data set is described as follows: DTNB CoA-release assay; allosteric sigmoidal fit. The data set is classed as biochemical, Homo sapiens. The following applies: 10 mM L-serine, 25 μM PLP, pH 7.5, 37 °C. The text has this: DTNB CoA-release assay; allosteric sigmoidal fit on SPT-ORMDL3 complex | Khalf value of this variant toward palmitoyl-CoA was nearly two times as high
This is another data set of the same source.

Data set [4] deals with the molecule itself. In words: cryo-EM structure; single-particle cryo-EM of co-expressed and co-purified SPT-ORMDL3 complexes at ~18 mg/ml in 25 mM HEPES pH 7.5, 150 mM NaCl, 0.01% GDN; apo, or WT preincubated with 1 mM C6-ceramide on ice for 1 hr.
Substrate in data set [5]: CCCCCCCCCCCCCCCC(=O)SCCNC(=O)CCNC(=O)[C@H](O)C(C)(C)COP(=O)(O)OP(=O)(O)OC[C@H]1O[C@@H](n2cnc3c(N)ncnc32)[C@H](O)[C@@H]1OP(=O)(O)O
In words: DTNB CoA-release assay; allosteric sigmoidal fit. The following applies: 10 mM L-serine, 25 μM PLP, pH 7.5, 37 °C. In kind it is biochemical, Homo sapiens. This is another data set of the same source.

Substrate in data set [6]: CCCCCCCCCCCCCCCC(=O)SCCNC(=O)CCNC(=O)[C@H](O)C(C)(C)COP(=O)(O)OP(=O)(O)OC[C@H]1O[C@@H](n2cnc3c(N)ncnc32)[C@H](O)[C@@H]1OP(=O)(O)O
In words: DTNB CoA-release assay; allosteric sigmoidal fit. In kind it is biochemical, Homo sapiens. Conditions: 10 mM L-serine, 25 μM PLP, pH 7.5, 37 °C. The text has this:
DTNB CoA-release assay; allosteric sigmoidal fit on SPT complex | SPT activity versus palmitoyl-CoA concentration for SPT and SPT-ORMDL3 complex
This is another data set of the same source.

B1: ORMDL3-ΔN2 (deletion of the Asn2 residue) (natural protein, human, UniProt Q8N138 1-153, looked up)
chain: MVGTAHSEVNPNTRVMNSRGIWLSYVLAIGLLHIVLLSIPFVSVPVVWTLTNLIHNMGMYIFLHTVKGTPFETPDQGKARLLTHWEQMDYGVQFTASRKFLTITPIVLYFLTSFYTKYDQIHFVLNTVSLMSVLIPKLPQLHGVRIFGINKY
notes: ORMDL3, human, full-length cDNA with Asn2 deleted; also called ORMDL3-ΔN2 mutant; source: HEK293F, transiently co-transfected with the SPT subunits, purified as a complex (anti-Flag resin, SEC, GDN)
As for B1, in data set [1], the binding result was “binds”.

B2: SPT-ORMDL3 complex (Homo sapiens) (protein)
chain 1: MNVGTAHSEVNPNTRVMNSRGIWLSYVLAIGLLHIVLLSIPFVSVPVVWTLTNLIHNMGMYIFLHTVKGTPFETPDQGKARLLTHWEQMDYGVQFTASRKFLTITPIVLYFLTSFYTKYDQIHFVLNTVSLMSVLIPKLPQLHGVRIFGINKY
chain 2: T1 sequence (looked up) 2
chain 3: T1 sequence (looked up) 1
notes: full-length subunits (ORMDL3-FL) co-expressed in HEK293F; N-terminal Flag tag on a subunit; purified in GDN; dimer of heterotetrameric protomers; with Serine palmitoyltransferase small subunit A
As for B2, the Km in “purified protein” came to 1140 ± 70 µM. Also, the K0.5 in data set [2] was 26.85 ± 2.18 µM.

B3: ORMDL3 (full-length, wild type) (natural protein, human, UniProt Q8N138 1-153, looked up)
chain: B2 chain 1
notes: ORMDL3, human, codon-optimized full-length cDNA in pCAG (new ORMDL3-FL plasmid without the 14 extra nucleotides upstream of the ORF); cDNAs were cloned 'with an N-terminal Flag tag or without a tag'; also called ORMDL3-FL; WT ORMDL3; source: HEK293F, transiently co-transfected with the SPT subunits, purified as a complex (anti-Flag resin, SEC, GDN)
Take B3: the binding result (with SPTLC1; in the data set with SPTLC2; in data set [1]) was “binds” throughout.

B4: SPT-ORMDL3 complex (Homo sapiens; Q8N138:N13A) (protein)
chain 1: B2 chain 1 with N13A
chain 2: T1 sequence (looked up) 2
chain 3: T1 sequence (looked up) 1
notes: as for B2
In the case of B4, the K0.5 in data set [3] was found to be 8.05 ± 1.20 µM.

B5: SPT-ORMDL3 (ORMDL3-N13A) complex (complex, human)
chain 1: T1 sequence (looked up) 1
chain 2: T1 sequence (looked up) 2
chain 3: T1 sequence (looked up) 3
chain 4: B2 chain 1 with N13A
notes: SPTLC1, human, codon-optimized full-length cDNA; SPTLC2, human, codon-optimized full-length cDNA; SPTssa, human, codon-optimized full-length cDNA; ORMDL3, human, full-length cDNA with N13A; One protomer; also called ORMDL3-N13A variant; ORMDL3-N13A protomer; source: HEK293F, transiently co-transfected, purified (anti-Flag resin, SEC, GDN); copies: + + +
Turning to B5, the binding result in [4] is recorded as “binds”.

B6: SPT-ORMDL3 (ORMDL3-ΔN2) complex (complex, human)
chain 1: T1 sequence (looked up) 1
chain 2: T1 sequence (looked up) 2
chain 3: T1 sequence (looked up) 3
chain 4: B1 chain
notes: SPTLC1, human, codon-optimized full-length cDNA; SPTLC2, human, codon-optimized full-length cDNA; SPTssa, human, codon-optimized full-length cDNA; ORMDL3, human, full-length cDNA with Asn2 deleted; One protomer; also called ORMDL3-ΔN2 variant; ORMDL3-ΔN2 protomer; source: HEK293F, transiently co-transfected, purified (anti-Flag resin, SEC, GDN); copies: + + +
On to B6, for which the binding result in data set [4] is on record as “binds”.

B7: SPT-ORMDL3 (ORMDL3-ΔN17) (Homo sapiens) (protein)
chain 1: T1 sequence (looked up) 1
chain 2: T1 sequence (looked up) 2
notes: ORMDL3 lacking the N-terminal 16 residues (deletion 2-17, by analogy with the printed ΔN8 = 2-8); HEK293F; purified in GDN; with Serine palmitoyltransferase small subunit A; ORM1-like protein 3
Consider B7, for which, in [5], the K0.5 was determined as 2.51 ± 0.33 µM.

B8: SPT-ORMDL3 complex (SPTLC1, SPTLC2, SPTssa, ORMDL3-FL) (complex, human)
chain 1: T1 sequence (looked up) 1
chain 2: T1 sequence (looked up) 2
chain 3: T1 sequence (looked up) 3
chain 4: B2 chain 1
notes: SPTLC1, human, codon-optimized full-length cDNA; SPTLC2, human, codon-optimized full-length cDNA; SPTssa, human, codon-optimized full-length cDNA; ORMDL3, human, codon-optimized full-length cDNA; One protomer; two protomers form the dimeric complex seen by cryo-EM; also called WT SPT-ORMDL3 complex; SPT-ORMDL3 protomer; source: HEK293F, transiently co-transfected, purified (anti-Flag resin, SEC, …)
In the case of B8, in data set [4], the “stoichiometry N” value is 2.

B9: SPT complex (Homo sapiens) (protein)
chain 1: T1 sequence (looked up) 1
chain 2: T1 sequence (looked up) 2
notes: core enzyme without ORMDL; full-length subunits co-expressed in HEK293F; N-terminal Flag tag on a subunit; purified in GDN; with Serine palmitoyltransferase small subunit A
B9: in “purified protein”, the Km turned out to be 1580 ± 130 µM. In [6], the K0.5 was 4.47 ± 0.31 µM.

B10: ORMDL3-N13A (natural protein, human, UniProt Q8N138 1-153, looked up)
chain: B2 chain 1 with N13A
notes: ORMDL3, human, full-length cDNA with N13A; also called ORMDL3-N13A mutant; source: HEK293F, transiently co-transfected with the SPT subunits, purified as a complex (anti-Flag resin, SEC, GDN)
In the case of B10, in data set [1], the binding result was “binds”.
